Measured values reported in patent US20170334988A1 (WALTER AND ELIZA HALL INSTITUTE OF MEDICAL RESEARCH, published 2017).
Ends that are not written are not given here. * marks the point of attachment. Biotin = O=C1N[C@H]2[C@H](CS[C@H]2CCCCC(=O)*)N1

How the values were obtained:
[1] = molecular target: T1, human BakΔC25 protein (residues 1-186 of SwissProt Accession No. Q16611.1) (human, UniProt Q16611 1-186); assay: SPR, BIAcore 3000
T1 construct: also called humanAC25 Bak protein; hBakAC
T1 sequence: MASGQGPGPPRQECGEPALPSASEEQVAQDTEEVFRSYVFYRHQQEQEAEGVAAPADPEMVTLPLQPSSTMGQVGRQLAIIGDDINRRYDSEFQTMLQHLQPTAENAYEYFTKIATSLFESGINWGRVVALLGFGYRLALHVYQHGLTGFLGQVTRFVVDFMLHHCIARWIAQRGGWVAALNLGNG

[2] = molecular target: T2, Bak loop peptide 46EQEAEGVAAPADPEMVTLPLQPSS69 (human); assay: SPR, BIAcore 3000
T2 construct: also called Bak peptide (residues E46 to S69 of human Bak)
T2 peptide: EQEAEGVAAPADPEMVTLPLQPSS

[3] = molecular target: T3, human Bak 15-mer peptide 1-15; assay: peptide ELISA, A405
T3 construct: member of m17
T3 peptide: Biotin-SGSGMASGQGPGPPRQECG
Procedure: (§1) Since most epitopes were linear, further mapping was performed using peptide arrays. Two arrays of overlapping 15-mer peptides (each offset by 10 residues) that collectively spanned the entire sequences of human and mouse Bak were designed. Biotinylated peptides were immobilized on streptavidin-coated plates and each antibody tested by ELISA.

[4] = molecular target: T4, mouse Bak 15-mer peptide 71-85; assay: peptide ELISA, A405
T4 construct: member of m18
T4 peptide: Biotin-SGSGQVGRQLALIGDDINR
Procedure: as §1

[5] = molecular target: T5, mouse Bak 15-mer peptide 81-95; assay: peptide ELISA, A405
T5 construct: member of m18
T5 peptide: Biotin-SGSGDDINRRYDTEFQNLL
Procedure: as §1

[6] = molecular target: T6, human Bak 15-mer peptide 21-35; assay: peptide ELISA, A405
T6 construct: member of m17
T6 peptide: Biotin-SGSGSASEEQVAQDTEEVF
Procedure: as §1

[7] = molecular target: T7, human Bak 15-mer peptide 31-45; assay: peptide ELISA, A405
T7 construct: member of m17
T7 peptide: Biotin-SGSGTEEVFRSYVFYRHQQ
Procedure: as §1

[8] = molecular target: T8, human Bak 15-mer peptide 41-55; assay: peptide ELISA, A405
T8 construct: member of m17
T8 peptide: Biotin-SGSGYRHQQEQEAEGVAAP
Procedure: as §1

[9] = molecular target: T9, human Bak 15-mer peptide 51-65; assay: peptide ELISA, A405
T9 construct: member of m17
T9 peptide: Biotin-SGSGGVAAPADPEMVTLPL
Procedure: as §1

[10] = molecular target: T10, human Bak 15-mer peptide 81-95; assay: peptide ELISA, A405
T10 construct: member of m17
T10 peptide: Biotin-SGSGIGDDINRRYDSEFQT
Procedure: as §1

[11] = molecular target: T11, mouse Bak 15-mer peptide 21-35; assay: peptide ELISA, A405
T11 construct: member of m18
T11 peptide: Biotin-SGSGSEQQVAQDTEEVFRS
Procedure: as §1

[12] = molecular target: T12, mouse Bak 15-mer peptide 31-45; assay: peptide ELISA, A405
T12 construct: member of m18
T12 peptide: Biotin-SGSGEVFRSYVFYLHQQEQ
Procedure: as §1

[13] = molecular target: T13, mouse Bak 15-mer peptide 41-55; assay: peptide ELISA, A405
T13 construct: member of m18
T13 peptide: Biotin-SGSGHQQEQETQGAAAPAN
Procedure: as §1

[14] = molecular target: T14, human Bak 15-mer peptide for residues 11-25 (human, UniProt Q16611 11-25); assay: peptide ELISA, A405
T14 construct: range 11-25
T14 peptide: Biotin-SGSGRQECGEPALPSASEE
Procedure: as §1

SEEQVAQD = molecular target: T15, SEEQVAQD; assay: peptide ELISA, A405
T15 construct: member of m19; also called hBak 8-mer 23-30
T15 peptide: Biotin-SGSGSEEQVAQD

EEQVAQDT = molecular target: T16, EEQVAQDT; assay: peptide ELISA, A405
T16 construct: member of m19; also called hBak 8-mer 24-31
T16 peptide: Biotin-SGSGEEQVAQDT

EQVAQDTE = molecular target: T17, EQVAQDTE; assay: peptide ELISA, A405
T17 construct: member of m19; also called hBak 8-mer 25-32
T17 peptide: Biotin-SGSGEQVAQDTE

QVAQDTEE = molecular target: T18, QVAQDTEE; assay: peptide ELISA, A405
T18 construct: member of m19; also called hBak 8-mer 26-33
T18 peptide: Biotin-SGSGQVAQDTEE

VAQDTEEV = molecular target: T19, VAQDTEEV; assay: peptide ELISA, A405
T19 construct: member of m19; also called hBak 8-mer 27-34
T19 peptide: Biotin-SGSGVAQDTEEV

AQDTEEVF = molecular target: T20, AQDTEEVF; assay: peptide ELISA, A405
T20 construct: member of m19; also called hBak 8-mer 28-35
T20 peptide: Biotin-SGSGAQDTEEVF

QDTEEVFR = molecular target: T21, QDTEEVFR; assay: peptide ELISA, A405
T21 construct: member of m19; also called hBak 8-mer 29-36
T21 peptide: Biotin-SGSGQDTEEVFR

DTEEVFRS = molecular target: T22, DTEEVFRS; assay: peptide ELISA, A405
T22 construct: member of m19; also called hBak 8-mer 30-37
T22 peptide: Biotin-SGSGDTEEVFRS

TEEVFRSY = molecular target: T23, TEEVFRSY; assay: peptide ELISA, A405
T23 construct: member of m19; also called hBak 8-mer 31-38
T23 peptide: Biotin-SGSGTEEVFRSY

EEVFRSYV = molecular target: T24, EEVFRSYV; assay: peptide ELISA, A405
T24 construct: member of m19; also called hBak 8-mer 32-39
T24 peptide: Biotin-SGSGEEVFRSYV

EVFRSYVF = molecular target: T25, EVFRSYVF; assay: peptide ELISA, A405
T25 construct: member of m19; also called hBak 8-mer 33-40
T25 peptide: Biotin-SGSGEVFRSYVF

VFRSYVFY = molecular target: T26, VFRSYVFY; assay: peptide ELISA, A405
T26 construct: member of m19; also called hBak 8-mer 34-41
T26 peptide: Biotin-SGSGVFRSYVFY

FRSYVFYR = molecular target: T27, FRSYVFYR; assay: peptide ELISA, A405
T27 construct: member of m19; also called hBak 8-mer 35-42
T27 peptide: Biotin-SGSGFRSYVFYR

RSYVFYRH = molecular target: T28, RSYVFYRH; assay: peptide ELISA, A405
T28 construct: member of m19; also called hBak 8-mer 36-43
T28 peptide: Biotin-SGSGRSYVFYRH

SYVFYRHQ = molecular target: T29, SYVFYRHQ; assay: peptide ELISA, A405
T29 construct: member of m19; also called hBak 8-mer 37-44
T29 peptide: Biotin-SGSGSYVFYRHQ

EAEGVAAP = molecular target: T30, EAEGVAAP; assay: peptide ELISA, A405
T30 construct: member of m19; also called hBak 8-mer 48-55
T30 peptide: Biotin-SGSGEAEGVAAP

AEGVAAPA = molecular target: T31, AEGVAAPA; assay: peptide ELISA, A405
T31 construct: member of m19; also called hBak 8-mer 49-56
T31 peptide: Biotin-SGSGAEGVAAPA

EGVAAPAD = molecular target: T32, EGVAAPAD; assay: peptide ELISA, A405
T32 construct: member of m19; also called hBak 8-mer 50-57
T32 peptide: Biotin-SGSGEGVAAPAD

GVAAPADP = molecular target: T33, GVAAPADP; assay: peptide ELISA, A405
T33 construct: member of m19; also called hBak 8-mer 51-58
T33 peptide: Biotin-SGSGGVAAPADP

VAAPADPE = molecular target: T34, VAAPADPE; assay: peptide ELISA, A405
T34 construct: member of m19; also called hBak 8-mer 52-59
T34 peptide: Biotin-SGSGVAAPADPE

[15] = molecular target: T35, human Bak 8-mer peptide YVFYRHQQ (residues 38-45) (human); assay: peptide ELISA, A405
T35 peptide: Biotin-SGSGYVFYRHQQ

[16] = molecular target: T2, Bak loop peptide …; assay: ITC at 25° C., Ab at 5 µM and peptide at 100 µM
Procedure: (§2) FIG. 19: Isothermal Titration Microcalorimetry binding profile of 26/05-7D10-17-13 with loop peptide (⁴⁶[…]⁶⁹; SEQ ID NO: 21) at 25° C. A) Titration with Ab at 5 μM and peptide at 100 μM.
(§3) ITC experiments were performed using a MicroCal iTC 200 instrument from GE. Injections of 2.43 μl of peptide solution were added from a computer-controlled microsyringe at an interval of 3 min into the sample solution of antibody (cell volume=300 μl) with stirring at 1000 rpm. Titrations were done at pH 7.2 using […] phosphate-buffered saline. The experimental data were fitted to a theoretical titration curve using software supplied by Microcal.

[17] = molecular target: T2, Bak loop peptide …; assay: ITC at 25° C., Ab at 2.5 µM and peptide at 50 µM
Procedure: as §2, §3

[18] = molecular target: T2, Bak loop peptide …; assay: ITC at 25 °C, Ab 5 µM, peptide 100 µM, OneSites model
Procedure: as §2, §3

[19] = molecular target: T2, Bak loop peptide …; assay: ITC at 25 °C, Ab 2.5 µM, peptide 50 µM, OneSites model
Procedure: as §2, §3

human Bak G51C = molecular target: T36, human Bak G51C (human, UniProt Q16611 2-211); assay: immunoprecipitation from membranes incubated with or without tBid, western blot
T36 construct: whole, on cells; In membrane fractions
T36 sequence (looked up): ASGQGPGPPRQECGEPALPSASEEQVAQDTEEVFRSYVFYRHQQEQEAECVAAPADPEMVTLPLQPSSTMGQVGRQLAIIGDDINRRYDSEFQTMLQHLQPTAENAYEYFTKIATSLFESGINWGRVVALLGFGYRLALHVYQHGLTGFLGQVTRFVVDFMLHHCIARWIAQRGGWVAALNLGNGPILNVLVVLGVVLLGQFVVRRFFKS
Procedure: FIG. 4: Ability of antibodies to recognize Bak in different conformations. Membrane fractions from cells expressing Bak (as indicated) were incubated (30 min, 30° C.) with (+) or without (−) Bid, solubilized with digitonin, and incubated with the Bak antibodies shown. Bak in immunoprecipitates and whole cell lysate controls was detected by western blot using the 4B5 antibody. Data are representative of at least two independent experiments ND, not done.
Following activation of Bak in membrane fractions, samples were solubilized by incubation with 1% digitonin on ice for at least 30 min. […] After removing beads by repeated washes in Onyx buffer, lysates were incubated with constant agitation for 2 h at 4° C. with 4 ug/ml anti-Bak antibody, followed by incubation for 1 h at 4° C. with additional pre-washed Sepharose G beads. Immune complexes were isolated by centrifugation (13000 rpm, 2 min, 4° C.), washed 4 times with Onyx buffer, resuspended in sample buffer containing 2-mercaptoethanol and analyzed by western blotting.

B1: 26/05-7D10-17-13 antibody (antibody, V domains shown)
VH: EVELVESGGDLVQPGRSLKLSCAASGFTFSNLAMAWVRQTPTKGLEWVASISPAGITTYYRDSVKGRFTISRDNARNTQYLQMDSLRSEDTATYYCARHTGKSSFFDYWGQGVMVTVSS
VL: DVQMTQSPSYLAASPGESVSISCKATENINTYLAWYQAKPGKTTKLLLYSGSTLQSGTPSRFSGSGSGTDFTLTISSLEPEDFAVYYCQQHNEYPLTFGSGTKLEIK
notes: Rat IgG monoclonal antibody from hybridoma SW1 (ECACC 15041601), WEHI monoclonal antibody facility; also called 26/05-7D10-17-13 MAb; 26/05-7D 10-17-13 anti-Bak antibody
Kd [1]: 0.466 nM | Kd [2]: 2.9 nM | binding result [3]: no binding | binding result [4]: no binding | binding result [5]: no binding | binding result [6]: no binding | binding result [7]: no binding | binding result [8]: binds | binding result [9]: binds | binding result [10]: no binding | binding result [11]: no binding | binding result [12]: no binding | binding result [13]: binds | binding result [14]: no binding | binding result (SEEQVAQD): no binding | binding result (EEQVAQDT): no binding | binding result (EQVAQDTE): no binding | binding result (QVAQDTEE): no binding | binding result (VAQDTEEV): no binding | binding result (AQDTEEVF): no binding | binding result (QDTEEVFR): no binding | binding result (DTEEVFRS): no binding | binding result (TEEVFRSY): no binding | binding result (EEVFRSYV): no binding | binding result (EVFRSYVF): no binding | binding result (VFRSYVFY): no binding | binding result (FRSYVFYR): no binding | binding result (RSYVFYRH): no binding | binding result (SYVFYRHQ): no binding | binding result (EAEGVAAP): binds | binding result (AEGVAAPA): binds | binding result (EGVAAPAD): binds | binding result (GVAAPADP): binds | binding result (VAAPADPE): binds | binding result [15]: no binding | Kd [16]: < 4.3 nM | Kd [17]: < 4 nM | Ka [18]: 2.34e+08 M⁻¹ | ΔH [18]: -23.1 kcal/mol | ΔS [18]: -39.2 cal/mol/deg | Ka [19]: 2.26e+08 M⁻¹ | ΔH [19]: -29.3 kcal/mol | ΔS [19]: -60 cal/mol/deg | binding result (human Bak G51C): no binding
